The text below walks through data of publication PMC6821326 (Nucleic Acids Research, 2019).

The experiment addresses T1, wild-type YoeB toxin, YoeB(His)6 (Escherichia coli, UniProt P69348).
T1 sequence: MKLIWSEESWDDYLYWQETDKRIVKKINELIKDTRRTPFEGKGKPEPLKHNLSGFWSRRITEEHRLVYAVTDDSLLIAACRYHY
Briefly: pull-down.

B1: YefM antitoxin (natural protein)
chain: MRTISYSEARQNLSATMMKAVEDHAPILITRQNGEACVLMSLEEYNSLEETAYLLRSPANARRLMDSIDSLKSGKGTEKDIIE
As for B1, the binding result was “binds”.
